Laboratory results from the supplement of paper PMC9112550, “Optimization of the antimicrobial peptide Bac7 by deep mutational scanning” (BMC Biology, 2022).

Tested on: Escherichia coli TOP10
Experiment: shrunken log2 fold change of peptide-encoding DNA abundance (4.5 h post-induction vs induction); higher = less antimicrobial activity (less host growth inhibition)
Settings: time post-induction: 4.5 h; library: site-saturation at positions 5, 18, 19, 20
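Further: peptides expressed intracellularly from a pBAD plasmid library in pooled LB shake-flask culture, induced with 0.3% L-arabinose, DNA abundance read by NGS, three biological replicates, DESeq2 with apeglm shrinkage.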

Point of comparison: RRIRARPPRLPRPRPRPDRMPRP, “shrunken log2 fold change” value 0.0124. Against it:
- RRIRARPPRLPRPRPRPAAFPRP — higher, 0.787
- RRIRARPPRLPRPRPRPACRPRP — higher, 0.896
- RRIRARPPRLPRPRPRPACTPRP — higher, 0.668
- RRIRARPPRLPRPRPRPADRPRP — higher, 0.256
- RRIRARPPRLPRPRPRPAFQPRP — within 0.2 log units, 0.174
- RRIRARPPRLPRPRPRPAGIPRP — within 0.2 log units, 0.156
- RRIRARPPRLPRPRPRPAHPPRP — higher, 0.653
- RRIRARPPRLPRPRPRPAHWPRP — higher, 0.535
- RRIRARPPRLPRPRPRPAIYPRP — within 0.2 log units, -0.0399
- RRIRARPPRLPRPRPRPAKCPRP — within 0.2 log units, -6.11e-05
- RRIRARPPRLPRPRPRPAKRPRP — higher, 0.47
- RRIRARPPRLPRPRPRPAKTPRP — within 0.2 log units, 0.179
- RRIRARPPRLPRPRPRPAMCPRP — higher, 0.303
- RRIRARPPRLPRPRPRPAMMPRP — higher, 0.511
- RRIRARPPRLPRPRPRPAMVPRP — within 0.2 log units, 0.109
- RRIRARPPRLPRPRPRPANEPRP — within 0.2 log units, 0.173
- RRIRARPPRLPRPRPRPAPCPRP — higher, 0.638
- RRIRARPPRLPRPRPRPAPGPRP — higher, 0.972
- RRIRARPPRLPRPRPRPAPTPRP — higher, 0.838
- RRIRARPPRLPRPRPRPARGPRP — higher, 0.774
- RRIRARPPRLPRPRPRPATDPRP — higher, 1.53
- RRIRARPPRLPRPRPRPAVSPRP — higher, 0.431
- RRIRARPPRLPRPRPRPAVWPRP — higher, 0.64
- RRIRARPPRLPRPRPRPAWGPRP — higher, 0.616
- RRIRARPPRLPRPRPRPAWHPRP — within 0.2 log units, 0.159
- RRIRARPPRLPRPRPRPAWVPRP — higher, 0.235
- RRIRARPPRLPRPRPRPAYHPRP — within 0.2 log units, -0.0226
- RRIRARPPRLPRPRPRPAYWPRP — higher, 0.393
- RRIRARPPRLPRPRPRPCECPRP — higher, 0.633
- RRIRARPPRLPRPRPRPCEPPRP — higher, 0.39
- RRIRARPPRLPRPRPRPCFRPRP — within 0.2 log units, -0.0247
- RRIRARPPRLPRPRPRPCGFPRP — within 0.2 log units, 0.111
- RRIRARPPRLPRPRPRPCGNPRP — within 0.2 log units, 0.0115
- RRIRARPPRLPRPRPRPCGQPRP — higher, 0.25
- RRIRARPPRLPRPRPRPCHHPRP — within 0.2 log units, -0.0114
- RRIRARPPRLPRPRPRPCIFPRP — within 0.2 log units, 0.131
- RRIRARPPRLPRPRPRPCKFPRP — within 0.2 log units, -0.138
- RRIRARPPRLPRPRPRPCKYPRP — lower, -0.201
- RRIRARPPRLPRPRPRPCMCPRP — within 0.2 log units, 0.118
- RRIRARPPRLPRPRPRPCMLPRP — within 0.2 log units, -0.0396
- RRIRARPPRLPRPRPRPCNFPRP — lower, -0.478
- RRIRARPPRLPRPRPRPCPMPRP — within 0.2 log units, -0.0338
- RRIRARPPRLPRPRPRPCRRPRP — within 0.2 log units, -0.085
- RRIRARPPRLPRPRPRPCVEPRP — higher, 0.317
- RRIRARPPRLPRPRPRPDAFPRP — higher, 0.879
- RRIRARPPRLPRPRPRPDCDPRP — higher, 0.214
- RRIRARPPRLPRPRPRPDCSPRP — higher, 0.958
- RRIRARPPRLPRPRPRPDDGPRP — within 0.2 log units, -0.078
- RRIRARPPRLPRPRPRPDDQPRP — higher, 1.41
- RRIRARPPRLPRPRPRPDECPRP — within 0.2 log units, -0.0409
- RRIRARPPRLPRPRPRPDFGPRP — within 0.2 log units, 0.106
- RRIRARPPRLPRPRPRPDGQPRP — within 0.2 log units, 0.0234
- RRIRARPPRLPRPRPRPDHIPRP — within 0.2 log units, -0.126
- RRIRARPPRLPRPRPRPDHWPRP — within 0.2 log units, 0.0446
- RRIRARPPRLPRPRPRPDILPRP — within 0.2 log units, 0.0584
- RRIRARPPRLPRPRPRPDISPRP — higher, 0.277
- RRIRARPPRLPRPRPRPDKFPRP — lower, -0.19
- RRIRARPPRLPRPRPRPDKGPRP — within 0.2 log units, 0.168
- RRIRARPPRLPRPRPRPDKQPRP — within 0.2 log units, -0.0794
- RRIRARPPRLPRPRPRPDLSPRP — within 0.2 log units, 0.209
- RRIRARPPRLPRPRPRPDNKPRP — lower, -0.24
- RRIRARPPRLPRPRPRPDNTPRP — lower, -0.214
- RRIRARPPRLPRPRPRPDNVPRP — within 0.2 log units, -0.059
- RRIRARPPRLPRPRPRPDPLPRP — higher, 0.867
- RRIRARPPRLPRPRPRPDQTPRP — within 0.2 log units, -0.0212
- RRIRARPPRLPRPRPRPDRAPRP — higher, 0.642
- RRIRARPPRLPRPRPRPDRGPRP — lower, -0.283
- RRIRARPPRLPRPRPRPDRQPRP — within 0.2 log units, 0.0329
- RRIRARPPRLPRPRPRPDRWPRP — higher, 0.685
- RRIRARPPRLPRPRPRPDWCPRP — within 0.2 log units, 0.0911
- RRIRARPPRLPRPRPRPDWYPRP — lower, -0.213
- RRIRARPPRLPRPRPRPDYYPRP — within 0.2 log units, -0.135
- RRIRARPPRLPRPRPRPEDQPRP — within 0.2 log units, 0.0203
- RRIRARPPRLPRPRPRPEDYPRP — within 0.2 log units, -0.0332
- RRIRARPPRLPRPRPRPEEGPRP — higher, 0.457
- RRIRARPPRLPRPRPRPEGTPRP — higher, 0.251
- RRIRARPPRLPRPRPRPEHEPRP — within 0.2 log units, 0.00993
- RRIRARPPRLPRPRPRPEHKPRP — within 0.2 log units, 0.0692
- RRIRARPPRLPRPRPRPEHVPRP — higher, 0.269
- RRIRARPPRLPRPRPRPEKRPRP — within 0.2 log units, 0.128
- RRIRARPPRLPRPRPRPEKVPRP — within 0.2 log units, 0.131
- RRIRARPPRLPRPRPRPEMFPRP — higher, 0.522
- RRIRARPPRLPRPRPRPEMYPRP — within 0.2 log units, 0.151
- RRIRARPPRLPRPRPRPENHPRP — within 0.2 log units, -0.102
- RRIRARPPRLPRPRPRPEPIPRP — higher, 0.716
- RRIRARPPRLPRPRPRPEQDPRP — higher, 0.805
- RRIRARPPRLPRPRPRPEQLPRP — higher, 1.47
- RRIRARPPRLPRPRPRPESRPRP — within 0.2 log units, 0.147
- RRIRARPPRLPRPRPRPEVQPRP — higher, 0.76
- RRIRARPPRLPRPRPRPEVYPRP — within 0.2 log units, -0.00104
- RRIRARPPRLPRPRPRPEWFPRP — within 0.2 log units, 0.0641
- RRIRARPPRLPRPRPRPEYAPRP — higher, 0.672
- RRIRARPPRLPRPRPRPFAGPRP — within 0.2 log units, 0.0859
- RRIRARPPRLPRPRPRPFASPRP — within 0.2 log units, 0.0388
- RRIRARPPRLPRPRPRPFCGPRP — within 0.2 log units, -0.0184
- RRIRARPPRLPRPRPRPFCPPRP — within 0.2 log units, 0.11
- RRIRARPPRLPRPRPRPFCSPRP — within 0.2 log units, -0.0878
- RRIRARPPRLPRPRPRPFDDPRP — within 0.2 log units, -0.0122
- RRIRARPPRLPRPRPRPFEAPRP — higher, 0.564
- RRIRARPPRLPRPRPRPFETPRP — within 0.2 log units, 0.0585
- RRIRARPPRLPRPRPRPFIEPRP — within 0.2 log units, 0.0738
- RRIRARPPRLPRPRPRPFIHPRP — lower, -0.45
- RRIRARPPRLPRPRPRPFLEPRP — lower, -0.219
- RRIRARPPRLPRPRPRPFMLPRP — within 0.2 log units, -0.0197
- RRIRARPPRLPRPRPRPFMQPRP — within 0.2 log units, -0.0876
- RRIRARPPRLPRPRPRPFNWPRP — within 0.2 log units, 0.0857
- RRIRARPPRLPRPRPRPFPKPRP — within 0.2 log units, 0.178
- RRIRARPPRLPRPRPRPFPTPRP — higher, 0.311
